{"source": "paper PMC6527180", "about": "“A chloride ring is an ancient evolutionary innovation mediating the assembly of the collagen IV scaffold of basement membranes” (The Journal of Biological Chemistry, 2019)", "binders": {"B1": {"name": "single-chain α121 NC1 trimer (sc121 NC1-trimer) (other, human)", "chain": "GTPSVDHGFLVTRHSQTIDDPQCPSGTKILYHGYSLLYVQGNERAHGQDLGTAGSCLRKFSTMPFLFCNINNVCNFASRNDYSYWLSTPEPMPMSMAPITGENIRPFISRCAVCEAPAMVMAVHSQTIQIPPCPSGWSSLWIGYSFVMHTSAGAEGSGQALASPGSCLEEFRSAPFIECHGRGTCNYYANAYSFWLATIERSEMFKKPTPSTLKAGELRTHVSRCQVCMGTGYLLVKHSQTDQEPMCPVGMNKLWSGYSLLYFEGQEKAHNQDLGLAGSCLARFSTMPFLYCNPGDVCYYASRNDKSYWLSTTAPLPMMPVAEDEIKPYISRCSVCEAPAIAIAVHSQDVSIPHCPAGWRSLWIGYSFLMHTAAGDEGGGQSLVSPGSCLEDFRATPFIECNGGRGTCHYYANKYSFWLTTIPEQSFQGSPSADTLKAGLIRTHISRCQVCMAPGFLVTRHSQTIDDPQCPSGTKILYHGYSLLYVQGNERAHGQDLGTAGSCLRKFSTMPFLFCNINNVCNFASRNDYSYWLSTPEPMPMSMAPITGENIRPFISRCAVCEAPAMVMAVHSQTIQIPPCPSGWSSLWIGYSFVMHTSAGAEGSGQALASPGSCLEEFRSAPFIECHGRGTCNYYANAYSFWLATIERSEMFKKPTPSTLKAGELRTHVSRCQVCMRRT", "notes": "collagen IV α1-chain NC1 domain, human, residues 1438–1666; artificial Gly–Thr–Gly linker between α1 and α2; collagen IV α2-chain NC1 domain, human, residues 1490–1709; artificial Ala–Pro–Gly linker between α2 and α1; collagen IV α1-chain NC1 domain, human, residues 1446–1669 (including final C-terminal residues); Vector-derived residues between the FLAG tag and the first α1 residue may be …"}, "B2": {"name": "bovine α2 NC1 monomer (collagen IV α2-chain NC1 domain from bovine lens basement membrane) (domain or fragment)", "chain": "ISIGYLLVKHSQTDQEPMCPVGMNKLWSGYSLLYFEGQEKAHNQDLGLAGSCLARFSTMPFLYCNPGDVCYYASRNDKSYWLSTTAPLPMMPVAEEDIRPYISRCSVCEAPAVAIAVHSQDVSIPHCPAGWRSLWIGYSFLMHTAAGDEGGGQSLVSPGSCLEDFRATPFIECNGARGTCHYYANKYSFWLTTIPEQSFQGTPSADTLKAGLIRTHISRCQVCMKNL", "notes": "collagen IV α2-chain NC1 domain, bovine, monomer from tissue-extracted NC1 hexamer; Used as a mixture with the α1 NC1 monomer; also called tissue-derived α2 NC1 monomer; NC1 monomers; source: purified from bovine lens basement membrane"}, "B3": {"name": "human collagen IV α2-chain NC1 domain, second domain of the single-chain trimer (residues 1490–1709) (domain or fragment, UniProt P08572 1490-1709, looked up)", "chain": "YLLVKHSQTDQEPMCPVGMNKLWSGYSLLYFEGQEKAHNQDLGLAGSCLARFSTMPFLYCNPGDVCYYASRNDKSYWLSTTAPLPMMPVAEDEIKPYISRCSVCEAPAIAIAVHSQDVSIPHCPAGWRSLWIGYSFLMHTAAGDEGGGQSLVSPGSCLEDFRATPFIECNGGRGTCHYYANKYSFWLTTIPEQSFQGSPSADTLKAGLIRTHISRCQVCM", "notes": "collagen IV α2-chain NC1 domain, human, residues 1490–1709; Not a free protein: joined by GTG (N-terminal side, to m4) and APG (C-terminal side, to m6) linkers on the single chain m1; also called α2 NC1 domain"}, "B4": {"name": "human collagen IV α1-chain NC1 domain, third domain of the single-chain trimer (residues 1446–1669) (domain or fragment, UniProt P02462 1446-1669, looked up)", "chain": "FLVTRHSQTIDDPQCPSGTKILYHGYSLLYVQGNERAHGQDLGTAGSCLRKFSTMPFLFCNINNVCNFASRNDYSYWLSTPEPMPMSMAPITGENIRPFISRCAVCEAPAMVMAVHSQTIQIPPCPSGWSSLWIGYSFVMHTSAGAEGSGQALASPGSCLEEFRSAPFIECHGRGTCNYYANAYSFWLATIERSEMFKKPTPSTLKAGELRTHVSRCQVCMRRT", "notes": "collagen IV α1-chain NC1 domain, human, residues 1446–1669 (including final C-terminal residues); Not a free protein: joined by an APG linker to m5 on the single chain m1; also called α1 NC1 domain"}}, "key": {"[1]": {"target": "the molecule itself", "test": "crystal structure; X-ray, 1.9 Å, space group P4_(1)2_(1)2; protein 11 mg/ml in 5 mM Tris-HCl pH 7.5, 150 mM NaCl; hexamer by crystallographic 2-fold"}, "[2]": {"target": "T1, bovine α1 NC1 monomer (collagen IV α1-chain NC1 domain from bovine lens basement membrane) (bovine, UniProt Q7SIB2 1441-1669)", "T1 construct": "collagen IV α1-chain NC1 domain, bovine, monomer from tissue-extracted NC1 hexamer; Used as a mixture with the α2 NC1 monomer; also called tissue-derived α1 NC1 monomer; NC1 monomers; source: purified from bovine lens basement membrane", "T1 sequence": "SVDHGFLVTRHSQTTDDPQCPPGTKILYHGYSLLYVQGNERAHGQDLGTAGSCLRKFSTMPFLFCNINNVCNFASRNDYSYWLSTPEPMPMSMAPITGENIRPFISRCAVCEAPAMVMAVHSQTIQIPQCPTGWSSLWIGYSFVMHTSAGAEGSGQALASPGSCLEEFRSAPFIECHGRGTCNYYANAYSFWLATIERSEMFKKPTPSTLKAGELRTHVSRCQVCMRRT", "test": "co-IP; bovine α1 and α2 NC1 monomers incubated with sc121 NC1-trimer in the presence of Cl−; formed hexamers immunoprecipitated by the FLAG tag of the recombinant trimer and their composition analysed (Fig. S3)", "conditions": "both partners purified"}, "[3]": {"target": "B2", "test": "co-IP; bovine α1 and α2 NC1 monomers incubated with sc121 NC1-trimer in the presence of Cl−; formed hexamers immunoprecipitated by the FLAG tag of the recombinant trimer and their composition analysed (Fig. S3)", "conditions": "both partners purified"}, "[4]": {"target": "the molecule itself", "test": "SEC; in vitro hexamer assembly: 1 mg/ml in 25 mM Tris acetate pH 7.5, induced with 150 mM NaCl, 24 h at 37 °C unless varied (NaCl, protein, temperature, time); hexamer peak quantified by SEC; second-order fit T+T→H"}, "[5]": {"target": "the molecule itself", "test": "AUC; sedimentation equilibrium, 0.3 mg/ml in Cl−-free TNA (25 mM Tris acetate pH 7.5, 150 mM sodium acetate), 4 °C, 10,000 rpm, 48 h; trimer–to–hexamer self-association model (two single chains to one hexamer), trimer mass fixed to 74 kDa"}, "[6]": {"target": "T1, bovine α1 NC1 monomer (collagen IV …)", "test": "SEC; in vitro hexamer assembly: 1 mg/ml in 25 mM Tris acetate pH 7.5, induced with 150 mM NaCl, 24 h at 37 °C unless varied (NaCl, protein, temperature, time); hexamer peak quantified by SEC; second-order fit T+T→H", "conditions": "both partners purified"}, "[7]": {"target": "T2, human collagen IV α1-chain NC1 domain, first domain of the single-chain trimer (residues 1438–1666) (human, UniProt P02462 1438-1666)", "T2 construct": "collagen IV α1-chain NC1 domain, human, residues 1438–1666; Not a free protein: joined by a GTG linker to m5 on the single chain m1; written apart for the domain-domain contacts in the crystal structure; also called α1 NC1 domain; not shown: FLAG, N-terminal, kept", "T2 sequence (looked up)": "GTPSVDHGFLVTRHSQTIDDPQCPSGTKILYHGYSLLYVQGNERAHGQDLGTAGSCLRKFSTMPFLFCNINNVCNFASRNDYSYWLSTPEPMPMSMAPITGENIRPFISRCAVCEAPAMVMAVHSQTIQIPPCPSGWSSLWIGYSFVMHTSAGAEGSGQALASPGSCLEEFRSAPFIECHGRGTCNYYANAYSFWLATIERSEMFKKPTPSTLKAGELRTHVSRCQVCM", "test": "crystal structure; X-ray, 1.9 Å, space group P4_(1)2_(1)2; protein 11 mg/ml in 5 mM Tris-HCl pH 7.5, 150 mM NaCl; hexamer by crystallographic 2-fold", "conditions": "both partners purified"}, "[8]": {"target": "B4", "test": "crystal structure; X-ray, 1.9 Å, space group P4_(1)2_(1)2; protein 11 mg/ml in 5 mM Tris-HCl pH 7.5, 150 mM NaCl; hexamer by crystallographic 2-fold", "conditions": "both partners purified"}}, "data": [{"binder": "B1", "values": [{"measurement": "stoichiometry N", "setting": "[1]", "result": 2}, {"measurement": "binding result", "setting": "[2]", "result": "binds"}, {"measurement": "binding result", "setting": "[3]", "result": "binds"}, {"measurement": "kon", "setting": "[4]", "result": "3.45 ± 0.12", "unit": "M⁻¹ s⁻¹"}, {"measurement": "Kd", "setting": "[5]", "result": 37, "unit": "µM"}]}, {"binder": "B2", "values": [{"measurement": "binding result", "setting": "[6]", "result": "binds"}]}, {"binder": "B3", "values": [{"measurement": "binding result", "setting": "[7]", "result": "binds"}, {"measurement": "binding result", "setting": "[8]", "result": "binds"}]}, {"binder": "B4", "values": [{"measurement": "binding result", "setting": "[7]", "result": "binds"}]}]}
